# Assay results: the nanobody polyreactivity screen of Harvey et al. (2022)
# Test: yeast display, Sf9 membrane polyspecificity reagent, FACS + sequencing; frameworks hold sequencing errors
# Outline: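 Galactose-induced (36–48 hours) yeast carrying a synthetic nanobody display library were exposed to 10% biotinylated, detergent-solubilized Sf9 membrane reagent at 4 °C for 1 hour. FACS followed streptavidin microbead enrichment, using low and high (top ~1%) gates for expression (anti-HA) and reagent binding (streptavidin). Colony PCR, MiSeq 2 × 250 sequencing and CDR-length filtering followed. Labels for polyreactivity reflect the gate of origin.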
row,Sequence,polyreactivity (PSR sort gate)
1,QVQLVESGGGLVQAGGILRLSCAAYGSISYGYGMGWYRQPPGKERELVATLSGRAGSTYYADSVKGRFTISRDNAKYTVYLQMNSLKPEDTAVYYCAAKWWRLTWTAGYGGRCYGYWGQGSQVTVSS,low polyreactivity
2,QVPLVESGGGLVQAGGSLRLSCAASGRTFPRYAMGWYRQAPGKERELVATISSGGSTNYADSVKGRFTISLDNAKNTVYLQMNSLKPEDTAVYYCAARYGRTYTRVGYWGQGTQVTVSS,high polyreactivity
3,QLQLVETGGGLVQAGGSLRLSCAASGYIFVYNDMGWSRQAPGKERELVAAITFSGGITYYADSVKGRFTISRDNAKNTVYLQMNSLKPEDTAVYYCAAADYWFYYGYYLTMDYWGQGTQVTVSS,low polyreactivity
4,QVQLVESGGGLVQAGGSLRLSCAASGITFLPYTMGWYRQAPGKERELVATISWNGGSTYYADSVKGRFTISRDNAKNTVYLQMNSLKPEDTAVYYCATGKWGYFRYNYWGQGTQVTVSS,high polyreactivity
5,QVQLVESVGGLVQAVGSLRLSCAASGRTFRHNAMGWYRQAHGKVRELVAAISSSGTNTHYADSVKGRFTISRDIAKNTVYLQMNSLQPEDTAVYYCAADRWGARRNQYHENGYWGQGTQVTVSS,high polyreactivity
6,QVQLVESGGGLVQAGGSLRLSCAASGRIFAQYAMGWYRQAPGKEREFVAAITGSTDSTYYADSVKGRFTISRDNAKNTVYLQMNSLKPEDTAVYYCAKDDAYSTIIDYEYSYDYWGQGTQVTVSS,high polyreactivity
7,QVQLVESGGGLVQAGGSLRLSCAASGFTFYGNAMGWYRQAPGKERELVAAISSSGGITYYADSVKGRFTISRDNAKNTVYLQMNSLKPEDTAVYYCAAVQGTPDYEYDSWGQGTQVTVSS,low polyreactivity
8,QVQLGESGGGFVQAGGLLRLSCAASGRTFRVYAMGWYRQAPGKERELVAAITRGGSTYYADSVKGRFTFSRDNAQNTVYLQMNSLKPEDTAVYSCAADVLRTQPIGWYSHSPLEYWGQGTQVTVSS,high polyreactivity
9,QVQLVESGGGLVQAGGSLRLSCAASGLIFSGSAMGWYRQAPGKERELVAAITWSGGSTYYADSVKGRFTISRDNAKNSVYLQMNSQKPEDTAVYYCNAKFYQISRYGYWGQGTQVTVSS,high polyreactivity
10,QVQLVESGAGLVQAGGSLRLSCAASGSTLVFYTMGWYRQAPGKERELVAAISYSGGRTYYADSVKGRFTISRDNAKNTVYLQMNSLKPEDTAVYYCAAVGRSYNRISQYDYWGQGTQVTVSS,high polyreactivity
11,QVQHVESGGGLVQAGVSLRLSCAATGRIFGRYVMGWYRQAPGKETELVARIRRNVGSTYYADSVKGRFTISRDNAKYPVYLQMNSLKPEDTAVYYCAAESYDTWRRYESWGQGTQVTVSS,high polyreactivity
12,QVQLVESGGGLVQAGGSLRLSCAASGFIMQYNAMGRYIQAPRKERELVAAITRSGVSTHYADSVKGRYTISRDNAKNTVYLQMISLKPEDTAVYYCARTGQSLYSRYYYWGQGTQVTVSS,low polyreactivity
13,QVQLVESGGGLVQAGGSLRLSCAASGSTFLYYDMGWYRQAPGKERELVATITRGGSTYYADSVKGRFTISRDNAKNTVYLQMNSLKPEDTAVYYCAAYRWGILSAYYYAWYGYWGQGTQVTVSS,low polyreactivity
14,QVHLVETGGGLVQAGGSLRLSCAASGFIFIWYALGGYRQAPGKERELVAAITSDGGRTYYADSVKGRFTISRDNAKNSVYFQMNSLKPEDTAVYYCYAVSSATKYEYWGQGTQVTVSS,high polyreactivity
15,QVQLLESGGGLVQAGGSLRLSCAASGNTFTYYAMGWYRQAPGKERELVAAISDDGNTNYADSVMGRFTISRDNAKKTVYSQMNSLKPEDTAVYYCNADSYPSLNKRGYDYWGQGTQVTVSS,low polyreactivity
16,QDQLVDSGGGLVQAGGSLSLSCAASGSILRTYAMGWYRQAPGKERELVAAISYRGVSTYYADSVKGRFTISRDNAKNTVYLQMNSLKPEDTAVYYCAADQLSDEYDYWGQGTQVTVSS,high polyreactivity
